Measured values from patent US20130066054A1 (UCB, published 2013).
Changes are numbered by the printed parent chain. In names and notes the source's numbering stands. Several values for one entry are separate records, joined by “and”; a condition that tells them apart may be missing. Equal entries are not always repeated.

B1: A26Fab-(3xG4S)-dsFv645 (bispecific antibody)
heavy: EVQLVESGGGLVQPGGSLRLSCAASGFTFTNYGIHWIRQAPGKGLEWVASISPSGGLTYYRDSVKGRFTISRDDAKNSPYLQMNSLRAEDTAVYYCATGGEGIFDYWGQGTLVTVSSASTKGPSVFPLAPSSKSTSGGTAALGCLVKDYFPEPVTVSWNSGALTSGVHTFPAVLQSSGLYSLSSVVTVPSSSLGTQTYICNVNHKPSNTKVDKKVEPKSCSGGGGSGGGGSGGGGSEVQLLESGGGLVQPGGSLRLSCAVSGIDLSNYAINWVRQAPGKCLEWIGIIWASGTTFYATWAKGRFTISRDSTTVYLQMNSLRAEDTAVYYCARTVPGYSTAPYFDLWGQGTLVTVSS
light: DIQMTQSPSSLSASVGDRVTITCRATQSIYNALAWYQQKPGKAPKLLIYNANTLHTGVPSRFSASGSGTDSTLTISSLQPEDFATYYCQQYYDYPLTFGGGTKVEIKRTVAAPSVFIFPPSDEQLKSGTASVVCLLNNFYPREAKVQWKVDNALQSGNSQESVTEQDSKDSTYSLSSTLTLSKADYEKHKVYACEVTHQGLSSPVTKSFNRGECSGGGGSGGGGSGGGGSDIVMTQSPSSVSASVGDRVTITCQSSPSVWSNFLSWYQQKPGKAPKLLIYEASKLTSGVPSRFKGSGSGTDFTLTISSLQPEDFATYYCGGGYSSISDTTFGCGTKVEIK
modifications: 645 Fv disulfide between Cys44 of SEQ ID NO 227 and Cys100 of SEQ ID NO 44 (Kabat); both cysteines are already in the letters
notes: Fab-dsFv: anti-OX40 A26 Fab with the anti-HSA 645 disulfide-stabilised Fv at the C-termini; The asterisk of 'A26-645std*' is not explained; also called A26-645std; A26-645std*
B2: A26-645 Asn210Cys K (bispecific antibody)
heavy: B1 heavy
light: B1 light with N210C
modifications: 645 Fv disulfide between Cys44 of SEQ ID NO 227 and Cys100 of SEQ ID NO 44 (Kabat); both cysteines are already in the letters
notes: Surface cysteine mutant of A26-645 (Kabat numbering); also called N210C CK; mutation 12
B3: A26-645 Cys214Ser K (bispecific antibody)
heavy: B1 heavy
light: B1 light with C214S
modifications: 645 Fv disulfide between Cys44 of SEQ ID NO 227 and Cys100 of SEQ ID NO 44 (Kabat); both cysteines are already in the letters
notes: Control mutant of A26-645 without the light chain's interchain cysteine (Kabat numbering); also called C214S CK; mutation 13
B4: A26-645 Cys233Ser H (bispecific antibody)
heavy: B1 heavy with C220S
light: B1 light
modifications: 645 Fv disulfide between Cys44 of SEQ ID NO 227 and Cys100 of SEQ ID NO 44 (Kabat); both cysteines are already in the letters
notes: Control mutant of A26-645 without the heavy chain's interchain cysteine (Kabat numbering); also called C233S CH1; mutation 5
B5: A26-645 Glu143Cys K (bispecific antibody)
heavy: B1 heavy
light: B1 light with E143C
notes: Surface cysteine mutant of A26-645 (Kabat numbering); also called E143C CK; mutation 8
B6: A26-645 Lys107Cys K (bispecific antibody)
heavy: B1 heavy
light: B1 light with K340C
notes: Surface cysteine mutant of A26-645 in the 645 Fv light domain (Kabat numbering); also called K107C 645 Fv light; mutation 15
B7: A26-645 Lys145Cys K (bispecific antibody)
heavy: B1 heavy
light: B1 light with K145C
notes: Surface cysteine mutant of A26-645 (Kabat numbering); also called K145C CK; mutation 9
B8: A26-645 Lys149Cys K (bispecific antibody)
heavy: B1 heavy
light: B1 light with K149C
notes: Surface cysteine mutant of A26-645 (Kabat numbering); also called K149C CK; mutation 10
B9: A26-645 Ser77Cys K (bispecific antibody)
heavy: B1 heavy
light: B1 light with S308C
notes: Surface cysteine mutant of A26-645 in the 645 Fv light domain (Kabat numbering); also called S77C 645 Fv light; mutation 14
B10: A26-645 Ser82bCys H (bispecific antibody)
heavy: B1 heavy with S318C
light: B1 light
modifications: 645 Fv disulfide between Cys44 of SEQ ID NO 227 and Cys100 of SEQ ID NO 44 (Kabat); both cysteines are already in the letters
notes: Surface cysteine mutant of A26-645 in the 645 Fv heavy domain (Kabat numbering); also called S82bC 645 Fv Heavy; mutation 6
B11: A26-645 Ser163Cys H (bispecific antibody)
heavy: B1 heavy with S160C
light: B1 light
modifications: 645 Fv disulfide between Cys44 of SEQ ID NO 227 and Cys100 of SEQ ID NO 44 (Kabat); both cysteines are already in the letters
notes: Surface cysteine mutant of A26-645 (Kabat numbering); also called S163C CH1; mutation 2
B12: A26-645 Ser171Cys K (bispecific antibody)
heavy: B1 heavy
light: B1 light with S171C
notes: Surface cysteine mutant of A26-645 (Kabat numbering); also called S171C CK; mutation 11
B13: A26-645 Ser182Cys H (bispecific antibody)
heavy: B1 heavy with S177C
light: B1 light
modifications: 645 Fv disulfide between Cys44 of SEQ ID NO 227 and Cys100 of SEQ ID NO 44 (Kabat); both cysteines are already in the letters
notes: Surface cysteine mutant of A26-645; also called A26-645 Ser180Cys H; S182C CH1
B14: A26-645 Thr116Cys H (bispecific antibody)
heavy: B1 heavy with T120C
light: B1 light
modifications: 645 Fv disulfide between Cys44 of SEQ ID NO 227 and Cys100 of SEQ ID NO 44 (Kabat); both cysteines are already in the letters
notes: Surface cysteine mutant of A26-645 (Kabat numbering); also called T116C CH1; mutation 1

Molecular target: T1, OX40 (UniProt P43489 29-214)
T1 construct: also called O × 40
T1 sequence (looked up): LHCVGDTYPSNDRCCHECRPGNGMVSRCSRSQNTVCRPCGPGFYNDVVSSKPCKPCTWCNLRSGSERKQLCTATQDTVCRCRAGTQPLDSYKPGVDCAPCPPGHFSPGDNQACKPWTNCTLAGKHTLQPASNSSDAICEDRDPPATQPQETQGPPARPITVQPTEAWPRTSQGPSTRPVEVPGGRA
Experiment: SPR (Biacore 3000), Fab-dsFv captured, antigen injected, 1:1 fit;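 note: capture antibody amine-coupled on chip, 3 min antigen association then 20 min dissociation, antigen titrated, reference flow-cell and buffer blanks subtracted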
Description: (§1) Covalent immobilisation of the capture antibody was achieved by standard amine coupling chemistry.
(§2) Each assay cycle consisted of firstly capturing the Fab-dsFv using a 1 min injection, before an association phase consisting of a 3 min injection of antigen, after which dissociation was monitored for 20 min. After each cycle, the capture surface was regenerated with 2×1 min injections of 40 mM HCl followed by 30 s of 5 mM NaOH. The flow rates used were 10 μl/min for capture, 30 μl/min for association and dissociation phases, and 10 μl/min for regeneration.
(§3) For kinetic assays, a titration of antigen was performed, a blank flow-cell was used for reference subtraction and buffer-blank injections were included to subtract instrument noise and drift.

For B1, the Kd was 0.328 nM and 0.33 nM and 0.463 nM and 0.46 nM.
In the case of B2, the Kd is reported as 0.229 nM and 0.23 nM.
B3 was tested, and the Kd was 0.278 nM and 0.28 nM.
With B5 the Kd was 0.325 nM and 0.33 nM.
For B6, the Kd was 0.234 nM and 0.23 nM.
In the case of B7, the Kd is reported as 0.241 nM and 0.24 nM.
B8 was tested, and the Kd was 0.231 nM and 0.23 nM.
B9 was tested, and the Kd was 0.248 nM and 0.25 nM.
With B10 the Kd was 0.247 nM and 0.25 nM.
For B11, the Kd was 0.265 nM and 0.27 nM.
With B12 the Kd was 0.194 nM and 0.19 nM.
For B13, the Kd was 0.247 nM and 0.25 nM.

B1 was tested, and the koff was 0.000149 s⁻¹ and 0.000191 s⁻¹.

In the case of B1, the kon is reported as 452000 M⁻¹ s⁻¹ and 413000 M⁻¹ s⁻¹.

B2 and B3 are within 1.5-fold of each other in koff: 0.000111 s⁻¹ for the first, 0.000122 s⁻¹ for the second.

B4 and B5 are within 1.5-fold of each other in koff: 0.000124 s⁻¹ for the first, 0.000155 s⁻¹ for the second.

B6 and B7 are within 1.5-fold of each other in koff: 0.00012 s⁻¹ for the first, 0.00011 s⁻¹ for the second.

B8 and B9 are within 1.5-fold of each other in koff: 0.000107 s⁻¹ for the first, 0.000117 s⁻¹ for the second.

B10 and B11 are within 1.5-fold of each other in koff: 0.000117 s⁻¹ for the first, 0.000146 s⁻¹ for the second.

B12 and B13 are within 1.5-fold of each other in koff: 9.24e-05 s⁻¹ for the first, 0.000108 s⁻¹ for the second.

B14 was tested, and the koff was 0.000146 s⁻¹.

B2 and B3 are within 1.5-fold of each other in kon: 483000 M⁻¹ s⁻¹ for the first, 437000 M⁻¹ s⁻¹ for the second.

B4 and B5 are within 1.5-fold of each other in kon: 461000 M⁻¹ s⁻¹ for the first, 477000 M⁻¹ s⁻¹ for the second.

B6 and B7 are within 1.5-fold of each other in kon: 515000 M⁻¹ s⁻¹ for the first, 457000 M⁻¹ s⁻¹ for the second.

B8 and B9 are within 1.5-fold of each other in kon: 465000 M⁻¹ s⁻¹ for the first, 470000 M⁻¹ s⁻¹ for the second.

B10 and B11 are within 1.5-fold of each other in kon: 473000 M⁻¹ s⁻¹ for the first, 550000 M⁻¹ s⁻¹ for the second.

B12 and B13 are within 1.5-fold of each other in kon: 477000 M⁻¹ s⁻¹ for the first, 437000 M⁻¹ s⁻¹ for the second.

With B14 the kon was 540000 M⁻¹ s⁻¹.

B4 and B14 are the same in Kd: 0.27 nM for the first, 0.27 nM for the second.

Molecular target: T2, human serum albumin (human, UniProt P02768 25-609)
T2 construct: also called HSA
Experiment: as above
Description: as §1, §2, §3

For B1, the Kd was 3.57 nM and 4.11 nM.

In the case of B1, the koff is reported as 0.000461 s⁻¹ and 0.000421 s⁻¹.

In the case of B1, the kon is reported as 129000 M⁻¹ s⁻¹ and 103000 M⁻¹ s⁻¹.

B2 and B3 are within 1.5-fold of each other in Kd: 1.6 nM for the first, 1.7 nM for the second.

B4 and B5 are within 1.5-fold of each other in Kd: 1.76 nM for the first, 2.2 nM for the second.

B6 and B7 are within 1.5-fold of each other in Kd: 2.28 nM for the first, 1.89 nM for the second.

Compared with B8, B9 is 1.6-fold higher in Kd: 1.72 nM for the first, 2.75 nM for the second. The first binds more tightly here.

Compared with B10, B11 is 3.1-fold higher in Kd: 1.09 nM for the first, 3.34 nM for the second. The first binds more tightly here.

B12 and B13 are within 1.5-fold of each other in Kd: 2.06 nM for the first, 1.95 nM for the second.

Binder B14 has a Kd of 1.87 nM.

B2 and B3 are within 1.5-fold of each other in koff: 0.000284 s⁻¹ for the first, 0.000282 s⁻¹ for the second.

B4 and B5 are within 1.5-fold of each other in koff: 0.000275 s⁻¹ for the first, 0.000337 s⁻¹ for the second.

B6 and B7 are within 1.5-fold of each other in koff: 0.000342 s⁻¹ for the first, 0.000259 s⁻¹ for the second.

B8 and B9 are within 1.5-fold of each other in koff: 0.00025 s⁻¹ for the first, 0.000282 s⁻¹ for the second.

Going from B10 to B11, the koff rises from 0.000257 s⁻¹ to 0.000722 s⁻¹ (2.8-fold).

Compared with B12, B13 is 1.6-fold higher in koff: 0.000257 s⁻¹ for the first, 0.000411 s⁻¹ for the second.

B14 showed a koff of 0.000351 s⁻¹.

B2 and B3 are within 1.5-fold of each other in kon: 178000 M⁻¹ s⁻¹ for the first, 166000 M⁻¹ s⁻¹ for the second.

B4 and B5 are within 1.5-fold of each other in kon: 157000 M⁻¹ s⁻¹ for the first, 153000 M⁻¹ s⁻¹ for the second.

B6 and B7 are within 1.5-fold of each other in kon: 150000 M⁻¹ s⁻¹ for the first, 137000 M⁻¹ s⁻¹ for the second.

B8 and B9 are within 1.5-fold of each other in kon: 145000 M⁻¹ s⁻¹ for the first, 102000 M⁻¹ s⁻¹ for the second.

B10 and B11 are within 1.5-fold of each other in kon: 236000 M⁻¹ s⁻¹ for the first, 216000 M⁻¹ s⁻¹ for the second.

Compared with B12, B13 is 1.7-fold higher in kon: 125000 M⁻¹ s⁻¹ for the first, 210000 M⁻¹ s⁻¹ for the second.

B14 gave a kon of 188000 M⁻¹ s⁻¹.
